Results taken from PMC509409, “Recognition and Accommodation at the Androgen Receptor Coactivator Binding Interface” (PLoS Biology, 2004).

Assays:
Experiment in all cases: SPR; Biacore 2000; biotinylated peptides (about 250 RU) held on streptavidin cells, AR LBD injected at 10 μM, 5 μM, 1 μM and 300 nM, 10 μl/min; HBS-P (10 mM HEPES pH 7.4, 150 mM NaCl, 0.005% Surfactant P20); SMRT2 peptide cell subtracted as background; two-state conformational change model, Kd calculated from rate constants
Conditions in all cases: both partners purified
[1] = biological target: T1, biotinylated FxxLW peptide (biotin tag attached through the additional C-terminal SGSGK)
T1 construct: also in PDB 1T79; The SGSGK-biotin form is told for the FRET assay; source: synthetic peptide (Anaspec)

[2] = biological target: T2, biotinylated FxxLF peptide (biotin tag attached through the additional C-terminal SGSGK)
T2 construct: also in PDB 1T7R; The SGSGK-biotin form is told for the FRET assay; source: synthetic peptide (Anaspec)

[3] = biological target: T3, biotinylated LxxLL peptide (biotin tag attached through the additional C-terminal SGSGK)
T3 construct: also in PDB 1T7F; The SGSGK-biotin form is told for the FRET assay; source: synthetic peptide (Anaspec)

Kd [1]: 920 nM | Kd [2]: 1100 nM | Kd [3]: 1800 nM
B1: androgen receptor ligand-binding domain (AR LBD), DHT-bound (domain or fragment)
chain: GSPGISGGGGGSHIEGYECQPIFLNVLEAIEPGVVCAGHDNNQPDSFAALLSSLNELGERQLVHVVKWAKALPGFRNLHVDDQMAVIQYSWMGLMVFAMGWRSFTNVNSRMLYFAPDLVFNEYRMHKSRMYSQCVRMRHLSQEFGWLQITPQEFLCMKALLLFSIIPVDGLKNQKFFDELRMNYIKELDRIIACKRKNPTSCSRRFYQLTKLLDSVQPIARELHQFTFDLLIKSHMVSVDFPEMMAEIISVQVPKILSGKVKPIYFHTQ
